Data from the supplement of paper PMC10065799, “High-throughput profiling of sequence recognition by tyrosine kinases and SH2 domains using bacterial peptide display” (eLife, 2023).
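Further: 11-residue human phosphosite peptides and single-mutation variants displayed on the E. coli surface, counted by deep sequencing, each peptide's frequency after selection divided by its frequency in the unselected input library; frequency after pTyr selection over input frequency; kinase dosed for 20-30% of maximal phosphorylation in three min.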

The sequences below were run against FGFR3 (UniProt P22607) (assay: phosphorylation enrichment, bacterial display (enrichment ratio); higher = better substrate or ligand; peptides without Tyr show the background).
Sequence of FGFR3 (P22607 whole entry, looked up): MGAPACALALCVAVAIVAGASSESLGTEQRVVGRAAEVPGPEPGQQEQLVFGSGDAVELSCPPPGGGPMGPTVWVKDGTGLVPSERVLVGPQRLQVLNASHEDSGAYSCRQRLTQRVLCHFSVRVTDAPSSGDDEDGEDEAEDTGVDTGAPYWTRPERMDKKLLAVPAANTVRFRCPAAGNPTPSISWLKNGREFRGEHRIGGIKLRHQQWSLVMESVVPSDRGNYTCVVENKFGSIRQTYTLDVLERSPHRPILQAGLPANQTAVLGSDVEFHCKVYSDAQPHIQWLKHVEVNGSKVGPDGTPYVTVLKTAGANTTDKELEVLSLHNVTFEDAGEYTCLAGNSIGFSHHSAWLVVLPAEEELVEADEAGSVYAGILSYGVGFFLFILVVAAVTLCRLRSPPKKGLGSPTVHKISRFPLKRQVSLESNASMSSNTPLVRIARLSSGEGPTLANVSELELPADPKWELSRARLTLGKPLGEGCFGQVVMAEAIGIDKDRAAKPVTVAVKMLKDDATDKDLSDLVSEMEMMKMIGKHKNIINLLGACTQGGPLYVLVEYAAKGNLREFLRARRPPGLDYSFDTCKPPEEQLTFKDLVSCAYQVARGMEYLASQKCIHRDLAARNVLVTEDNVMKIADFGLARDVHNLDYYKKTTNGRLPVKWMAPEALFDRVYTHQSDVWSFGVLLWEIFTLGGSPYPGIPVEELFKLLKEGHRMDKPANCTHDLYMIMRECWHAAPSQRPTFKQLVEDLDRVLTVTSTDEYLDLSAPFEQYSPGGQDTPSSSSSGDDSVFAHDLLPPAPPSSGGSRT
With MEIHAYHKLLE [LMNA_Y376_R377H] the phosphorylation enrichment was 0.746. SPPILYSFFLN [FCRL6_Y239_D244N_YF] gave a phosphorylation enrichment of 1.38. In the case of FDDDDYDMDFV [BLM_Y296_T298M], the phosphorylation enrichment is reported as 0.815. PAQAAYQKVVA [HBB_Y131_V127A] was tested, and the phosphorylation enrichment was 0.62. Work on ERLLDYTRTVQ [INPP5E_Y439] yielded a phosphorylation enrichment of 0.665. LPEHPYHSRPR [NDUFA8_Y142_N140H] was tested, and the phosphorylation enrichment was 2.71. GTFVIYVRFGG [FLNB_Y1687_YF] gave a phosphorylation enrichment of 0.731. In the case of CTTIHYNFKCN [TP53_Y234_M237K_YF], the phosphorylation enrichment is reported as 0.494. SGRRRYTIAAL [TTR_Y125_P122R] was tested, and the phosphorylation enrichment was 0.598. QLYGPYLRIHA [BSCL2_Y213_A212P] gave a phosphorylation enrichment of 0.73. Sequence VIVRMYDFHVL [RPF2_Y109_G106V_YF] has a phosphorylation enrichment of 0.597. SARFRYLLAEK [LDHB_Y173_M175L] showed a phosphorylation enrichment of 0.55. For AYGNLYGSRKQ [YIPF7_Y59], the phosphorylation enrichment was 0.481. Work on SAAAIYMVRHP [PMP22_Y117_T118M] yielded a phosphorylation enrichment of 0.519. With NFRPGYNNFFN [USH2A_Y467_YF] the phosphorylation enrichment was 0.549. For PYADPYYDYEI [ZC3H18_Y371], the phosphorylation enrichment was 19.8. Sequence DFLEKYFKFGC [NNMT_Y24_S29C_YF] has a phosphorylation enrichment of 0.73. In the case of LDAFIYDAAVL [GRIN2A_Y730], the phosphorylation enrichment is reported as 0.868. With ATDLAYFLVCK [ASL_Y375_R379C_YF] the phosphorylation enrichment was 1.26. For SKGYAYVHFDS [PABPC5_Y149], the phosphorylation enrichment was 0.749. With KVPAIYGVGTR [CPS1_Y162_D165G] the phosphorylation enrichment was 0.402. ESMNTYLQTSP [NAT1_Y208] gave a phosphorylation enrichment of 0.664. EEQKKNFNAMK [SCN5A_Y1494_Y1494N_YF] showed a phosphorylation enrichment of 0.546. Work on GFVEDYRPPFF [ACVRL1_Y421_I417F_YF] yielded a phosphorylation enrichment of 0.6. QYPDIYAREEV [CRX_Y67_V66I] showed a phosphorylation enrichment of 1.41. Work on TVQVAYFTVMM [SPATA17_Y83_M86V_YF] yielded a phosphorylation enrichment of 1.09. With SLMNQYVNKKF [RAB7A_Y28] the phosphorylation enrichment was 0.396. For HVIKLYGACSQ [RET_Y791], the phosphorylation enrichment was 0.84. Sequence TSSAGYRRTPS [ABI1_Y333_G331A] has a phosphorylation enrichment of 0.491.

These sequences were tested on c-Abl (mouse) in the same assay as above.
MEIHAYHKLLE [LMNA_Y376_R377H] showed a phosphorylation enrichment of 0.691. With SPPILYSFFLN [FCRL6_Y239_D244N_YF] the phosphorylation enrichment was 2.75. FDDDDYDMDFV [BLM_Y296_T298M] was tested, and the phosphorylation enrichment was 0.68. PAQAAYQKVVA [HBB_Y131_V127A] gave a phosphorylation enrichment of 0.589. Sequence ERLLDYTRTVQ [INPP5E_Y439] has a phosphorylation enrichment of 0.853. For LPEHPYHSRPR [NDUFA8_Y142_N140H], the phosphorylation enrichment was 0.828. GTFVIYVRFGG [FLNB_Y1687_YF] was tested, and the phosphorylation enrichment was 0.854. In the case of CTTIHYNFKCN [TP53_Y234_M237K_YF], the phosphorylation enrichment is reported as 0.51. In the case of SGRRRYTIAAL [TTR_Y125_P122R], the phosphorylation enrichment is reported as 0.512. QLYGPYLRIHA [BSCL2_Y213_A212P] gave a phosphorylation enrichment of 0.612. For VIVRMYDFHVL [RPF2_Y109_G106V_YF], the phosphorylation enrichment was 0.885. For SARFRYLLAEK [LDHB_Y173_M175L], the phosphorylation enrichment was 0.783. Work on AYGNLYGSRKQ [YIPF7_Y59] yielded a phosphorylation enrichment of 0.442. SAAAIYMVRHP [PMP22_Y117_T118M] showed a phosphorylation enrichment of 1.65. With NFRPGYNNFFN [USH2A_Y467_YF] the phosphorylation enrichment was 0.574. In the case of PYADPYYDYEI [ZC3H18_Y371], the phosphorylation enrichment is reported as 1.16. In the case of DFLEKYFKFGC [NNMT_Y24_S29C_YF], the phosphorylation enrichment is reported as 0.768. Sequence LDAFIYDAAVL [GRIN2A_Y730] has a phosphorylation enrichment of 6.28. Work on ATDLAYFLVCK [ASL_Y375_R379C_YF] yielded a phosphorylation enrichment of 1.1. SKGYAYVHFDS [PABPC5_Y149] was tested, and the phosphorylation enrichment was 0.953. In the case of KVPAIYGVGTR [CPS1_Y162_D165G], the phosphorylation enrichment is reported as 0.923. For ESMNTYLQTSP [NAT1_Y208], the phosphorylation enrichment was 0.693. With EEQKKNFNAMK [SCN5A_Y1494_Y1494N_YF] the phosphorylation enrichment was 0.607. For GFVEDYRPPFF [ACVRL1_Y421_I417F_YF], the phosphorylation enrichment was 0.868. Sequence QYPDIYAREEV [CRX_Y67_V66I] has a phosphorylation enrichment of 2.12. For TVQVAYFTVMM [SPATA17_Y83_M86V_YF], the phosphorylation enrichment was 0.921. In the case of SLMNQYVNKKF [RAB7A_Y28], the phosphorylation enrichment is reported as 0.447. Sequence HVIKLYGACSQ [RET_Y791] has a phosphorylation enrichment of 1.1. In the case of TSSAGYRRTPS [ABI1_Y333_G331A], the phosphorylation enrichment is reported as 0.576.

These sequences were tested against MERTK (UniProt Q12866) in the same assay as above.
Sequence of MERTK (Q12866 whole entry, looked up): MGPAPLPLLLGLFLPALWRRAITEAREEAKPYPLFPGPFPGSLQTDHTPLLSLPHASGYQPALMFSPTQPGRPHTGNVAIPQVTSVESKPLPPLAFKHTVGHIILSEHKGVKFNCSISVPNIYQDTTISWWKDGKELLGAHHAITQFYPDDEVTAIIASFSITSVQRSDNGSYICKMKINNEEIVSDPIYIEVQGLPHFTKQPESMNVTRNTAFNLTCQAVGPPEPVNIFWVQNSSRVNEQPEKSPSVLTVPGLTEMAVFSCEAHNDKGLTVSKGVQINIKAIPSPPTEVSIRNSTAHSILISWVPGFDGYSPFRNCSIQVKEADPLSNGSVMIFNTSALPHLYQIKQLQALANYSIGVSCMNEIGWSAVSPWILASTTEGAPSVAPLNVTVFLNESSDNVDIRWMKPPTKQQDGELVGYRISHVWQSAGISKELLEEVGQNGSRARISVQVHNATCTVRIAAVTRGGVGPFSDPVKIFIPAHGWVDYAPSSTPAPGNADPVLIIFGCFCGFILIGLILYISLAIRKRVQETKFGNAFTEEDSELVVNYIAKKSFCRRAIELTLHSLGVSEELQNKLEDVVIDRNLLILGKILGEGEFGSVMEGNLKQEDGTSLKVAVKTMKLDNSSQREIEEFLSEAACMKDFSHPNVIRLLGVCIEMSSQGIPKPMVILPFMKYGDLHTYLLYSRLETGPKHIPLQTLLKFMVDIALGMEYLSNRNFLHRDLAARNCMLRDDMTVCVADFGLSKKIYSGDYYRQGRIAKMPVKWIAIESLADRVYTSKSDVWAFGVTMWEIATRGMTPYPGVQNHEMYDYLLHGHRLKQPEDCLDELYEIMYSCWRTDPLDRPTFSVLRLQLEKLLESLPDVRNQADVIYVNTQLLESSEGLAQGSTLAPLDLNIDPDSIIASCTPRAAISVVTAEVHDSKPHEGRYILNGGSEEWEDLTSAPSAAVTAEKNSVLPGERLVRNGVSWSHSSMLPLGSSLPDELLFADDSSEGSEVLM
Work on MEIHAYHKLLE [LMNA_Y376_R377H] yielded a phosphorylation enrichment of 0.403. In the case of SPPILYSFFLN [FCRL6_Y239_D244N_YF], the phosphorylation enrichment is reported as 10.5. Work on FDDDDYDMDFV [BLM_Y296_T298M] yielded a phosphorylation enrichment of 0.438. Sequence PAQAAYQKVVA [HBB_Y131_V127A] has a phosphorylation enrichment of 0.349. In the case of ERLLDYTRTVQ [INPP5E_Y439], the phosphorylation enrichment is reported as 0.365. In the case of LPEHPYHSRPR [NDUFA8_Y142_N140H], the phosphorylation enrichment is reported as 1.17. GTFVIYVRFGG [FLNB_Y1687_YF] was tested, and the phosphorylation enrichment was 0.379. Sequence CTTIHYNFKCN [TP53_Y234_M237K_YF] has a phosphorylation enrichment of 0.425. SGRRRYTIAAL [TTR_Y125_P122R] gave a phosphorylation enrichment of 0.601. Sequence QLYGPYLRIHA [BSCL2_Y213_A212P] has a phosphorylation enrichment of 0.538. Sequence VIVRMYDFHVL [RPF2_Y109_G106V_YF] has a phosphorylation enrichment of 1.87. SARFRYLLAEK [LDHB_Y173_M175L] showed a phosphorylation enrichment of 0.498. AYGNLYGSRKQ [YIPF7_Y59] was tested, and the phosphorylation enrichment was 0.502. SAAAIYMVRHP [PMP22_Y117_T118M] was tested, and the phosphorylation enrichment was 3.25. Work on NFRPGYNNFFN [USH2A_Y467_YF] yielded a phosphorylation enrichment of 0.433. PYADPYYDYEI [ZC3H18_Y371] showed a phosphorylation enrichment of 4.93. For DFLEKYFKFGC [NNMT_Y24_S29C_YF], the phosphorylation enrichment was 0.507. Sequence LDAFIYDAAVL [GRIN2A_Y730] has a phosphorylation enrichment of 3.04. With ATDLAYFLVCK [ASL_Y375_R379C_YF] the phosphorylation enrichment was 0.517. In the case of SKGYAYVHFDS [PABPC5_Y149], the phosphorylation enrichment is reported as 0.37. KVPAIYGVGTR [CPS1_Y162_D165G] showed a phosphorylation enrichment of 0.527. Sequence ESMNTYLQTSP [NAT1_Y208] has a phosphorylation enrichment of 0.412. For EEQKKNFNAMK [SCN5A_Y1494_Y1494N_YF], the phosphorylation enrichment was 0.409. GFVEDYRPPFF [ACVRL1_Y421_I417F_YF] gave a phosphorylation enrichment of 0.428. For QYPDIYAREEV [CRX_Y67_V66I], the phosphorylation enrichment was 1.48. With TVQVAYFTVMM [SPATA17_Y83_M86V_YF] the phosphorylation enrichment was 0.486. SLMNQYVNKKF [RAB7A_Y28] showed a phosphorylation enrichment of 0.315. In the case of HVIKLYGACSQ [RET_Y791], the phosphorylation enrichment is reported as 0.423. TSSAGYRRTPS [ABI1_Y333_G331A] gave a phosphorylation enrichment of 0.392.

These sequences were tested against EPHB1 (UniProt P54762) in the same assay as above.
Sequence of EPHB1 (P54762 whole entry, looked up): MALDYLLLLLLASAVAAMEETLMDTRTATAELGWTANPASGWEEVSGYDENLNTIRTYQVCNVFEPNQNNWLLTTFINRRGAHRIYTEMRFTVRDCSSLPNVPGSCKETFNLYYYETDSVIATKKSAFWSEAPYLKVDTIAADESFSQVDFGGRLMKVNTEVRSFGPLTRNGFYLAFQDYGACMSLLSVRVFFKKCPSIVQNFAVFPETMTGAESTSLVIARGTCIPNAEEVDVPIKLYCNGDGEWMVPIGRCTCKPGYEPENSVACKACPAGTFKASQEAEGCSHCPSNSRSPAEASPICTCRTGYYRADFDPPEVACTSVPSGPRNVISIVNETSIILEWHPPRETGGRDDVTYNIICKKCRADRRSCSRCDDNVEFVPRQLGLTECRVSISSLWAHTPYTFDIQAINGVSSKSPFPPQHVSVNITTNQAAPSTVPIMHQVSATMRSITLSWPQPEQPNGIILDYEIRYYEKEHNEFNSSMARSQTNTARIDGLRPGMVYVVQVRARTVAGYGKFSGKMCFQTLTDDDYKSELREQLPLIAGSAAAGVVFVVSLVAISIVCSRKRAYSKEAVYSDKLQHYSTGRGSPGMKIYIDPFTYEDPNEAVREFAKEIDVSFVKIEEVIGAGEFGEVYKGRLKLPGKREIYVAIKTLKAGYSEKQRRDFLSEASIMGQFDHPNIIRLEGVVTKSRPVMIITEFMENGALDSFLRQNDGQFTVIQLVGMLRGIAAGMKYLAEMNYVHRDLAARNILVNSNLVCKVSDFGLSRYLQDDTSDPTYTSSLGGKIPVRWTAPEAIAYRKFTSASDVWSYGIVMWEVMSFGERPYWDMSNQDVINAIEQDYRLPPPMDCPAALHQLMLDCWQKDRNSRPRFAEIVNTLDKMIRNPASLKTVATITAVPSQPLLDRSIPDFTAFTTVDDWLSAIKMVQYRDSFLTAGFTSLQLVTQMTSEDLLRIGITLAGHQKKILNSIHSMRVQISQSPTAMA
With MEIHAYHKLLE [LMNA_Y376_R377H] the phosphorylation enrichment was 0.475. SPPILYSFFLN [FCRL6_Y239_D244N_YF] was tested, and the phosphorylation enrichment was 3.03. Work on FDDDDYDMDFV [BLM_Y296_T298M] yielded a phosphorylation enrichment of 0.761. For PAQAAYQKVVA [HBB_Y131_V127A], the phosphorylation enrichment was 0.562. For ERLLDYTRTVQ [INPP5E_Y439], the phosphorylation enrichment was 0.663. Work on LPEHPYHSRPR [NDUFA8_Y142_N140H] yielded a phosphorylation enrichment of 0.861. GTFVIYVRFGG [FLNB_Y1687_YF] was tested, and the phosphorylation enrichment was 0.392. Work on CTTIHYNFKCN [TP53_Y234_M237K_YF] yielded a phosphorylation enrichment of 0.381. Work on SGRRRYTIAAL [TTR_Y125_P122R] yielded a phosphorylation enrichment of 0.615. QLYGPYLRIHA [BSCL2_Y213_A212P] gave a phosphorylation enrichment of 0.897. Work on VIVRMYDFHVL [RPF2_Y109_G106V_YF] yielded a phosphorylation enrichment of 1.33. With SARFRYLLAEK [LDHB_Y173_M175L] the phosphorylation enrichment was 0.35. For AYGNLYGSRKQ [YIPF7_Y59], the phosphorylation enrichment was 0.324. In the case of SAAAIYMVRHP [PMP22_Y117_T118M], the phosphorylation enrichment is reported as 2.45. NFRPGYNNFFN [USH2A_Y467_YF] was tested, and the phosphorylation enrichment was 0.354. Sequence PYADPYYDYEI [ZC3H18_Y371] has a phosphorylation enrichment of 5.6. DFLEKYFKFGC [NNMT_Y24_S29C_YF] was tested, and the phosphorylation enrichment was 0.55. Sequence LDAFIYDAAVL [GRIN2A_Y730] has a phosphorylation enrichment of 2.63. ATDLAYFLVCK [ASL_Y375_R379C_YF] was tested, and the phosphorylation enrichment was 0.789. Work on SKGYAYVHFDS [PABPC5_Y149] yielded a phosphorylation enrichment of 0.575. In the case of KVPAIYGVGTR [CPS1_Y162_D165G], the phosphorylation enrichment is reported as 0.424. In the case of ESMNTYLQTSP [NAT1_Y208], the phosphorylation enrichment is reported as 0.584. Sequence EEQKKNFNAMK [SCN5A_Y1494_Y1494N_YF] has a phosphorylation enrichment of 0.381. GFVEDYRPPFF [ACVRL1_Y421_I417F_YF] was tested, and the phosphorylation enrichment was 0.504. In the case of QYPDIYAREEV [CRX_Y67_V66I], the phosphorylation enrichment is reported as 1.63. For TVQVAYFTVMM [SPATA17_Y83_M86V_YF], the phosphorylation enrichment was 0.838. With SLMNQYVNKKF [RAB7A_Y28] the phosphorylation enrichment was 0.291. In the case of HVIKLYGACSQ [RET_Y791], the phosphorylation enrichment is reported as 0.875. TSSAGYRRTPS [ABI1_Y333_G331A] was tested, and the phosphorylation enrichment was 0.42.
